Experiment [1] has as its target T1, human GLP-2 receptor (hGLP2-R) (human, UniProt O95838).
T1 sequence: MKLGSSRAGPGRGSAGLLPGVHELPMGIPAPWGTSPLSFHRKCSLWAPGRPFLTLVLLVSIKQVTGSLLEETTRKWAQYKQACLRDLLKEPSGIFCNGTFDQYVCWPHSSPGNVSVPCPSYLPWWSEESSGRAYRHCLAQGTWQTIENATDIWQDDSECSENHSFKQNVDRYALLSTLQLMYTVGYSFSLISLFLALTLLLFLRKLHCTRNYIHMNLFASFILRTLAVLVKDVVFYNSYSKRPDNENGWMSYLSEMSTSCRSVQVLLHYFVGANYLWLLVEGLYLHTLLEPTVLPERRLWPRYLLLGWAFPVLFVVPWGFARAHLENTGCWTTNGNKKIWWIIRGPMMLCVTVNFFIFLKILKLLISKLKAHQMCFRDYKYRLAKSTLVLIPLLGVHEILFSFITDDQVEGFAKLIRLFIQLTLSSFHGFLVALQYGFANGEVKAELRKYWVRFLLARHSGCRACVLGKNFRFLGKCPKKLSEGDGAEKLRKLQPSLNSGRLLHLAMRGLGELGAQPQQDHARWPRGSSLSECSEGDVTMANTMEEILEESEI
The experiment can be described thus: cell-based or functional assay.

Experiment [2] deals with human glucagon-like peptide 1 receptor (GLP-1R) (human, UniProt P43220). The experiment can be described thus: cell-based or functional assay.

Square brackets hold non-standard residues; d marks the D form. Aib = CC(C)(N)C(=O)O

B1: Compound 19 (peptide)
peptide: H-H[Aib]EGTFTSELATILDEQAARDFIAWLIAQKITD-OH
SMILES: CC[C@H](C)[C@H](NC(=O)[C@H](CC(C)C)NC(=O)[C@H](Cc1c[nH]c2ccccc12)NC(=O)[C@H](C)NC(=O)[C@@H](NC(=O)[C@H](Cc1ccccc1)NC(=O)[C@H](CC(=O)O)NC(=O)[C@H](CCCNC(=N)N)NC(=O)[C@H](C)NC(=O)[C@H](C)NC(=O)[C@H](CCC(N)=O)NC(=O)[C@H](CCC(=O)O)NC(=O)[C@H](CC(=O)O)NC(=O)[C@H](CC(C)C)NC(=O)[C@@H](NC(=O)[C@@H](NC(=O)[C@H](C)NC(=O)[C@H](CC(C)C)NC(=O)[C@H](CCC(=O)O)NC(=O)[C@H](CO)NC(=O)[C@@H](NC(=O)[C@H](Cc1ccccc1)NC(=O)[C@@H](NC(=O)CNC(=O)[C@H](CCC(=O)O)NC(=O)C(C)(C)NC(=O)[C@@H](N)Cc1c[nH]cn1)[C@@H](C)O)[C@@H](C)O)[C@@H](C)O)[C@@H](C)CC)[C@@H](C)CC)C(=O)N[C@@H](C)C(=O)N[C@@H](CCC(N)=O)C(=O)N[C@@H](CCCCN)C(=O)N[C@H](C(=O)N[C@H](C(=O)N[C@@H](CC(=O)O)C(=O)O)[C@@H](C)O)[C@@H](C)CC
Turning to B1, the “EC50 GLP-2 (nM); cAMP AlphaScreen” value in experiment [1] turned out to be 0.15 nM. In addition, in experiment [2], the “EC50 GLP-1 (nM); cAMP AlphaScreen” value was found to be 0.005 nM.

B2: Compound 17 (peptide)
peptide: H-H[Aib]EGTFTSELATILDEQAARDFIAWLIRHKITD-OH
SMILES: CC[C@H](C)[C@H](NC(=O)[C@H](Cc1ccccc1)NC(=O)[C@H](CC(=O)O)NC(=O)[C@H](CCCNC(=N)N)NC(=O)[C@H](C)NC(=O)[C@H](C)NC(=O)[C@H](CCC(N)=O)NC(=O)[C@H](CCC(=O)O)NC(=O)[C@H](CC(=O)O)NC(=O)[C@H](CC(C)C)NC(=O)[C@@H](NC(=O)[C@@H](NC(=O)[C@H](C)NC(=O)[C@H](CC(C)C)NC(=O)[C@H](CCC(=O)O)NC(=O)[C@H](CO)NC(=O)[C@@H](NC(=O)[C@H](Cc1ccccc1)NC(=O)[C@@H](NC(=O)CNC(=O)[C@H](CCC(=O)O)NC(=O)C(C)(C)NC(=O)[C@@H](N)Cc1c[nH]cn1)[C@@H](C)O)[C@@H](C)O)[C@@H](C)O)[C@@H](C)CC)C(=O)N[C@@H](C)C(=O)N[C@@H](Cc1c[nH]c2ccccc12)C(=O)N[C@@H](CC(C)C)C(=O)N[C@H](C(=O)N[C@@H](CCCNC(=N)N)C(=O)N[C@@H](Cc1c[nH]cn1)C(=O)N[C@@H](CCCCN)C(=O)N[C@H](C(=O)N[C@H](C(=O)N[C@@H](CC(=O)O)C(=O)O)[C@@H](C)O)[C@@H](C)CC)[C@@H](C)CC
On to B2, for which, in experiment [1], the “EC50 GLP-2 (nM); cAMP AlphaScreen” value was 0.066 nM. In addition, the “EC50 GLP-1 (nM); cAMP AlphaScreen” value in experiment [2] amounted to 0.006 nM.

B3: Compound 15 (peptide)
peptide: H-H[Aib]EGTFTSELATILDEQAARDFIAWLIQHKITD-OH
SMILES: CC[C@H](C)[C@H](NC(=O)[C@H](Cc1ccccc1)NC(=O)[C@H](CC(=O)O)NC(=O)[C@H](CCCNC(=N)N)NC(=O)[C@H](C)NC(=O)[C@H](C)NC(=O)[C@H](CCC(N)=O)NC(=O)[C@H](CCC(=O)O)NC(=O)[C@H](CC(=O)O)NC(=O)[C@H](CC(C)C)NC(=O)[C@@H](NC(=O)[C@@H](NC(=O)[C@H](C)NC(=O)[C@H](CC(C)C)NC(=O)[C@H](CCC(=O)O)NC(=O)[C@H](CO)NC(=O)[C@@H](NC(=O)[C@H](Cc1ccccc1)NC(=O)[C@@H](NC(=O)CNC(=O)[C@H](CCC(=O)O)NC(=O)C(C)(C)NC(=O)[C@@H](N)Cc1c[nH]cn1)[C@@H](C)O)[C@@H](C)O)[C@@H](C)O)[C@@H](C)CC)C(=O)N[C@@H](C)C(=O)N[C@@H](Cc1c[nH]c2ccccc12)C(=O)N[C@@H](CC(C)C)C(=O)N[C@H](C(=O)N[C@@H](CCC(N)=O)C(=O)N[C@@H](Cc1c[nH]cn1)C(=O)N[C@@H](CCCCN)C(=O)N[C@H](C(=O)N[C@H](C(=O)N[C@@H](CC(=O)O)C(=O)O)[C@@H](C)O)[C@@H](C)CC)[C@@H](C)CC
For B3, in experiment [1], the “EC50 GLP-2 (nM); cAMP AlphaScreen” value stood at 0.038 nM. The “EC50 GLP-1 (nM); cAMP AlphaScreen” value in experiment [2] worked out at 0.005 nM.

B4: Compound 18 (peptide)
peptide: H-H[Aib]EGTFTSELATILDEQAARDFIAWLISHKITD-OH
SMILES: CC[C@H](C)[C@H](NC(=O)[C@H](Cc1ccccc1)NC(=O)[C@H](CC(=O)O)NC(=O)[C@H](CCCNC(=N)N)NC(=O)[C@H](C)NC(=O)[C@H](C)NC(=O)[C@H](CCC(N)=O)NC(=O)[C@H](CCC(=O)O)NC(=O)[C@H](CC(=O)O)NC(=O)[C@H](CC(C)C)NC(=O)[C@@H](NC(=O)[C@@H](NC(=O)[C@H](C)NC(=O)[C@H](CC(C)C)NC(=O)[C@H](CCC(=O)O)NC(=O)[C@H](CO)NC(=O)[C@@H](NC(=O)[C@H](Cc1ccccc1)NC(=O)[C@@H](NC(=O)CNC(=O)[C@H](CCC(=O)O)NC(=O)C(C)(C)NC(=O)[C@@H](N)Cc1c[nH]cn1)[C@@H](C)O)[C@@H](C)O)[C@@H](C)O)[C@@H](C)CC)C(=O)N[C@@H](C)C(=O)N[C@@H](Cc1c[nH]c2ccccc12)C(=O)N[C@@H](CC(C)C)C(=O)N[C@H](C(=O)N[C@@H](CO)C(=O)N[C@@H](Cc1c[nH]cn1)C(=O)N[C@@H](CCCCN)C(=O)N[C@H](C(=O)N[C@H](C(=O)N[C@@H](CC(=O)O)C(=O)O)[C@@H](C)O)[C@@H](C)CC)[C@@H](C)CC
As to B4, in experiment [1], the “EC50 GLP-2 (nM); cAMP AlphaScreen” value is 0.054 nM. Also, the “EC50 GLP-1 (nM); cAMP AlphaScreen” value in experiment [2] stood at 0.006 nM.

B5: Compound 20 (peptide)
peptide: H-H[Aib]EGTFTSELATILDEQAARDFIAWLIAYKITD-OH
SMILES: CC[C@H](C)[C@H](NC(=O)[C@H](CC(C)C)NC(=O)[C@H](Cc1c[nH]c2ccccc12)NC(=O)[C@H](C)NC(=O)[C@@H](NC(=O)[C@H](Cc1ccccc1)NC(=O)[C@H](CC(=O)O)NC(=O)[C@H](CCCNC(=N)N)NC(=O)[C@H](C)NC(=O)[C@H](C)NC(=O)[C@H](CCC(N)=O)NC(=O)[C@H](CCC(=O)O)NC(=O)[C@H](CC(=O)O)NC(=O)[C@H](CC(C)C)NC(=O)[C@@H](NC(=O)[C@@H](NC(=O)[C@H](C)NC(=O)[C@H](CC(C)C)NC(=O)[C@H](CCC(=O)O)NC(=O)[C@H](CO)NC(=O)[C@@H](NC(=O)[C@H](Cc1ccccc1)NC(=O)[C@@H](NC(=O)CNC(=O)[C@H](CCC(=O)O)NC(=O)C(C)(C)NC(=O)[C@@H](N)Cc1c[nH]cn1)[C@@H](C)O)[C@@H](C)O)[C@@H](C)O)[C@@H](C)CC)[C@@H](C)CC)C(=O)N[C@@H](C)C(=O)N[C@@H](Cc1ccc(O)cc1)C(=O)N[C@@H](CCCCN)C(=O)N[C@H](C(=O)N[C@H](C(=O)N[C@@H](CC(=O)O)C(=O)O)[C@@H](C)O)[C@@H](C)CC
Turning to B5, the “EC50 GLP-2 (nM); cAMP AlphaScreen” value in experiment [1] is 0.26 nM. Moreover, the “EC50 GLP-1 (nM); cAMP AlphaScreen” value in experiment [2] stood at 0.012 nM.

B6: Compound 16 (peptide)
peptide: H-H[Aib]EGTFTSELATILDEQAARDFIAWLIKHKITD-OH
SMILES: CC[C@H](C)[C@H](NC(=O)[C@H](Cc1ccccc1)NC(=O)[C@H](CC(=O)O)NC(=O)[C@H](CCCNC(=N)N)NC(=O)[C@H](C)NC(=O)[C@H](C)NC(=O)[C@H](CCC(N)=O)NC(=O)[C@H](CCC(=O)O)NC(=O)[C@H](CC(=O)O)NC(=O)[C@H](CC(C)C)NC(=O)[C@@H](NC(=O)[C@@H](NC(=O)[C@H](C)NC(=O)[C@H](CC(C)C)NC(=O)[C@H](CCC(=O)O)NC(=O)[C@H](CO)NC(=O)[C@@H](NC(=O)[C@H](Cc1ccccc1)NC(=O)[C@@H](NC(=O)CNC(=O)[C@H](CCC(=O)O)NC(=O)C(C)(C)NC(=O)[C@@H](N)Cc1c[nH]cn1)[C@@H](C)O)[C@@H](C)O)[C@@H](C)O)[C@@H](C)CC)C(=O)N[C@@H](C)C(=O)N[C@@H](Cc1c[nH]c2ccccc12)C(=O)N[C@@H](CC(C)C)C(=O)N[C@H](C(=O)N[C@@H](CCCCN)C(=O)N[C@@H](Cc1c[nH]cn1)C(=O)N[C@@H](CCCCN)C(=O)N[C@H](C(=O)N[C@H](C(=O)N[C@@H](CC(=O)O)C(=O)O)[C@@H](C)O)[C@@H](C)CC)[C@@H](C)CC
Take B6: the “EC50 GLP-2 (nM); cAMP AlphaScreen” value in experiment [1] amounted to 0.026 nM. In addition, the “EC50 GLP-1 (nM); cAMP AlphaScreen” value in experiment [2] amounted to 0.006 nM.

B7: Compound 21 (peptide)
peptide: H-H[Aib]EGTFTSELATILDEQAARDFIAWLHQHKITD-OH
SMILES: CC[C@H](C)[C@H](NC(=O)[C@H](Cc1ccccc1)NC(=O)[C@H](CC(=O)O)NC(=O)[C@H](CCCNC(=N)N)NC(=O)[C@H](C)NC(=O)[C@H](C)NC(=O)[C@H](CCC(N)=O)NC(=O)[C@H](CCC(=O)O)NC(=O)[C@H](CC(=O)O)NC(=O)[C@H](CC(C)C)NC(=O)[C@@H](NC(=O)[C@@H](NC(=O)[C@H](C)NC(=O)[C@H](CC(C)C)NC(=O)[C@H](CCC(=O)O)NC(=O)[C@H](CO)NC(=O)[C@@H](NC(=O)[C@H](Cc1ccccc1)NC(=O)[C@@H](NC(=O)CNC(=O)[C@H](CCC(=O)O)NC(=O)C(C)(C)NC(=O)[C@@H](N)Cc1c[nH]cn1)[C@@H](C)O)[C@@H](C)O)[C@@H](C)O)[C@@H](C)CC)C(=O)N[C@@H](C)C(=O)N[C@@H](Cc1c[nH]c2ccccc12)C(=O)N[C@@H](CC(C)C)C(=O)N[C@@H](Cc1c[nH]cn1)C(=O)N[C@@H](CCC(N)=O)C(=O)N[C@@H](Cc1c[nH]cn1)C(=O)N[C@@H](CCCCN)C(=O)N[C@H](C(=O)N[C@H](C(=O)N[C@@H](CC(=O)O)C(=O)O)[C@@H](C)O)[C@@H](C)CC
As to B7, the “EC50 GLP-2 (nM); cAMP AlphaScreen” value in experiment [1] was found to be 0.11 nM. In experiment [2], the “EC50 GLP-1 (nM); cAMP AlphaScreen” value stood at 0.049 nM.
